This sample holds only a part of the variants without activity.
How the values were obtained:
biotinyl-Val-oxazolone = test: self-aminoacylation, catalytic enhancement (BVO) (fold over background); higher = more active; k-Seq, kA / k0A0; sequences stand for … in GGGAAUGGAUCCACAUCUACGAAUUC…UUCACUGCAGACUUGACGAAGCUG
Method in brief: (§1)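 The uncatalyzed rate is the low-activity peak of a bimodal Gaussian fit, and catalytic enhancement is median kA divided by it. The kA values came from pseudo-first-order fits, with 1000 bootstraps, of per-sequence fraction reacted measured by streptavidin capture, triplicate qPCR and Illumina sequencing. Mutagenized RNA pools with a 21-nt variable region (0.43 μM) were reacted with each biotinyl-aminoacyl-oxazolone at 2–1250 μM in 50 μL HEPES/NaCl/KCl/MgCl2/CaCl2 buffer with 5% acetonitrile, pH 6.9–7.0, for 90 minutes at room temperature.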

biotinyl-Phe-oxazolone = test: self-aminoacylation, catalytic enhancement (BFO) (fold over background); higher = more active; k-Seq, kA / k0A0; sequences stand for … in GGGAAUGGAUCCACAUCUACGAAUUC…UUCACUGCAGACUUGACGAAGCUG
Method in brief: as §1

biotinyl-Leu-oxazolone = test: self-aminoacylation, catalytic enhancement (BLO) (fold over background); higher = more active; k-Seq, kA / k0A0; sequences stand for … in GGGAAUGGAUCCACAUCUACGAAUUC…UUCACUGCAGACUUGACGAAGCUG
Method in brief: as §1

biotinyl-Met-oxazolone = test: self-aminoacylation, catalytic enhancement (BMO) (fold over background); higher = more active; k-Seq, kA / k0A0; sequences stand for … in GGGAAUGGAUCCACAUCUACGAAUUC…UUCACUGCAGACUUGACGAAGCUG
Method in brief: as §1

biotinyl-Ile-oxazolone = test: self-aminoacylation, catalytic enhancement (BIO) (fold over background); higher = more active; k-Seq, kA / k0A0; sequences stand for … in GGGAAUGGAUCCACAUCUACGAAUUC…UUCACUGCAGACUUGACGAAGCUG
Method in brief: as §1

biotinyl-Trp-oxazolone = test: self-aminoacylation, catalytic enhancement (BWO) (fold over background); higher = more active; k-Seq, kA / k0A0; sequences stand for … in GGGAAUGGAUCCACAUCUACGAAUUC…UUCACUGCAGACUUGACGAAGCUG
Method in brief: as §1

Row | Sequence | self-aminoacylation (biotinyl-Val-oxazolone) | self-aminoacylation (biotinyl-Phe-oxazolone) | self-aminoacylation (biotinyl-Leu-oxazolone) | self-aminoacylation (biotinyl-Met-oxazolone) | self-aminoacylation (biotinyl-Ile-oxazolone) | self-aminoacylation (biotinyl-Trp-oxazolone)
1 | AAGCUUGCUAAUAGGCGCAAG [Fam3.1 aminoacylation ribozyme variant] | 1.16 | 1.46 | 1.66 | 1.12 | 1.38 | 1.2
2 | AUUACCCUGGCCAUCGCGUGA [Fam2.1 aminoacylation ribozyme variant] | 4.81 | 56.3 | 11 | 6.31 | 4.28 | 8.64
3 | CCACUCUUCACGCAAUCGGUC [Fam1B.1 aminoacylation ribozyme variant] | 1.21 | 0.819 | 1.13 | 1.05 | 1.08 | 0.952
4 | AUUCACCUAGGGCACCGGGUG [Fam2.2 aminoacylation ribozyme variant] | 3.88 | 23.3 | 4.66 | 4.01 | 3.58 | 3.62
5 | CUACUUCAAACAAUCGCCCUG [Fam1A.1 aminoacylation ribozyme variant] | 1.2 | 0.818 | 0.959 | 1.19 | 1.05 | 0.581
6 | AAGUUUGCUCAUUGUCGCAAG [Fam3.1 aminoacylation ribozyme variant] | 0.968 | 3 | 0.923 | 1.09 | 0.875 | 1.89
7 | ACUCACAUAGGUCAUCGGGUG [Fam2.2 aminoacylation ribozyme variant] | 6.65 | 69.5 | 10.6 | 9.37 | 6.79 | 10.2
8 | GAGAUUGCUAAUAGUCGCAAG [Fam3.1 aminoacylation ribozyme variant] | 1.98 | 1.8 | 1.52 | 1.67 | 1.88 | 2.94
9 | AUUACCCUGCUUAUCGAGUGA [Fam2.1 aminoacylation ribozyme variant] | 1.37 | 2.4 | 1.96 | 1.64 | 1.29 | 2.33
10 | CCACUUCAAACUAUCGGUCUG [Fam1A.1 aminoacylation ribozyme variant] | 1.46 | 0.866 | 1.16 | 1.39 | 1.44 | 1.39
11 | AAAUUUGCUAAUAGUUGCAAG [Fam3.1 aminoacylation ribozyme variant] | 1.21 | 1.44 | 1.08 | 1.24 | 1.61 | 1.71
12 | AAGUUUGAUAAAAGUCGCAAG [Fam3.1 aminoacylation ribozyme variant] | 1.22 | 2.15 | 1.13 | 1.64 | 1.51 | 1.46
13 | AUUUACCUAGGACAUCGGGUG [Fam2.2 aminoacylation ribozyme variant] | 2.23 | 10.9 | 3.45 | 2.48 | 2.26 | 2.29
14 | CCACCCGUCAAGCAAUCGGUC [Fam1B.1 aminoacylation ribozyme variant] | 1.44 | 1.12 | 1.12 | 1.2 | 1.24 | 1.08
15 | AUUUACCUAGGUCCUCGGGUG [Fam2.2 aminoacylation ribozyme variant] | 3.3 | 28.6 | 6.13 | 4.15 | 3.33 | 4.31
16 | CUACAUUUCAAGCAAUCGGUC [Fam1B.1 aminoacylation ribozyme variant] | 0.849 | 2.41 | 0.705 | 0.748 | 0.887 | 1.45
17 | AUUAGCCUGGUCCUCGAGUGA [Fam2.1 aminoacylation ribozyme variant] | 2.84 | 36.7 | 5.41 | 4.69 | 2.67 | 5.08
18 | CUUACCCUGGUCAUCGAGUAA [Fam2.1 aminoacylation ribozyme variant] | 2.8 | 8.84 | 4.25 | 4.58 | 2.03 | 3.51
19 | AGUACCCUGGUCAUCGACUGA [Fam2.1 aminoacylation ribozyme variant] | 1.07 | 0.572 | 0.974 | 1.1 | 1.34 | 1.01
20 | AUGUUUGCCAAUAGUCGCAAG [Fam3.1 aminoacylation ribozyme variant] | 1.33 | 1.82 | 1.14 | 1.64 | 1.53 | 1.15
21 | CCACACUUCAUGCAAUCGGUU [Fam1B.1 aminoacylation ribozyme variant] | 1.26 | 0.766 | 1.37 | 1.33 | 1.2 | 0.843
22 | CUACUCCAAACAAUCCGUCUG [Fam1A.1 aminoacylation ribozyme variant] | 0.821 | 0.642 | 0.759 | 0.636 | 0.838 | 0.582
23 | AUUACUCGGGUCAUCGAGUGA [Fam2.1 aminoacylation ribozyme variant] | 3.33 | 28.6 | 8.09 | 6.51 | 3.66 | 6.64
24 | CUUACCCUGGUCAUCGAGUGA [Fam2.1 aminoacylation ribozyme variant] | 11 | 85.8 | 23.1 | 25.3 | 9.83 | 26.1
25 | GUUACCCUGGUCAUUGAGUGA [Fam2.1 aminoacylation ribozyme variant] | 5.29 | 71.3 | 11 | 10.2 | 4.72 | 13
26 | CCACACUCCACGCAAUCGGUC [Fam1B.1 aminoacylation ribozyme variant] | 1.62 | 0.759 | 1.2 | 1 | 1.51 | 1.18

Row | Sequence | self-aminoacylation (biotinyl-Val-oxazolone) | self-aminoacylation (biotinyl-Phe-oxazolone) | self-aminoacylation (biotinyl-Leu-oxazolone) | self-aminoacylation (biotinyl-Met-oxazolone) | self-aminoacylation (biotinyl-Ile-oxazolone) | self-aminoacylation (biotinyl-Trp-oxazolone)
27 | UCACACUUCAUGCAAUCGGUC [Fam1B.1 aminoacylation ribozyme variant] | 0.887 | 0.632 | 0.736 | 0.793 | 0.85 | 0.656
28 | AUUCCCCUAGGUCAGCGGGUG [Fam2.2 aminoacylation ribozyme variant] | 7.83 | 61.3 | 14.1 | 11.1 | 8.05 | 11
29 | AAGUUUGCUAAUAGACGCACG [Fam3.1 aminoacylation ribozyme variant] | 0.528 | 0.811 | 0.365 | 0.472 | 0.543 | 0.572
30 | ACGUUUGCUAAUAGUCGCAAC [Fam3.1 aminoacylation ribozyme variant] | 1.18 | 1.42 | 1.43 | 0.972 | 1.36 | 0.859
31 | CUACUUCAAACAAUCGGUCCG [Fam1A.1 aminoacylation ribozyme variant] | 0.749 | 8.83 | 0.862 | 0.745 | 0.711 | 5.32
32 | ACUCACCAAGGUCAUCGGGUG [Fam2.2 aminoacylation ribozyme variant] | 4.52 | 46.4 | 7.13 | 5.24 | 4.43 | 6.28
33 | AAGUUUGCUAAUAGCAGCAAG [Fam3.1 aminoacylation ribozyme variant] | 0.851 | 1.12 | 0.646 | 0.683 | 0.793 | 0.754
34 | CUACUUCAACCAAUCAGUCUG [Fam1A.1 aminoacylation ribozyme variant] | 0.701 | 13.9 | 0.794 | 0.541 | 0.747 | 5.54
35 | CCACACUUCGAGCAAUCCGUC [Fam1B.1 aminoacylation ribozyme variant] | 1.49 | 0.498 | 1.08 | 1.03 | 1.28 | 1.4
36 | CCACCCUUCAAGCAAUCGUUC [Fam1B.1 aminoacylation ribozyme variant] | 0.89 | 0.85 | 0.611 | 0.584 | 0.888 | 0.742
37 | AUUCAACUAGGUCAACGGGUG [Fam2.2 aminoacylation ribozyme variant] | 2.31 | 25.5 | 4.91 | 4.31 | 2.4 | 3.38
38 | AUUCACCGAGGUCAUCUGGUG [Fam2.2 aminoacylation ribozyme variant] | 2.69 | 34.6 | 5.72 | 4.31 | 2.39 | 3.61
39 | AUUCACCUGGGGCAUCGGGUG [Fam2.2 aminoacylation ribozyme variant] | 6.59 | 36.1 | 5.93 | 5.8 | 4.42 | 7.38
40 | AUUAACCUGGUCAUAGAGUGA [Fam2.1 aminoacylation ribozyme variant] | 2.55 | 17.4 | 4.78 | 4.3 | 2.31 | 6.17
41 | CUACAUCAAACACUCGGUCUG [Fam1A.1 aminoacylation ribozyme variant] | 1.26 | 3.01 | 0.978 | 1.03 | 1.03 | 1.11
42 | CUACUUCAAACAAAGGGUCUG [Fam1A.1 aminoacylation ribozyme variant] | 0.724 | 0.589 | 0.567 | 0.763 | 0.756 | 0.669
43 | ACUACCCAGGUCAUCGAGUGA [Fam2.1 aminoacylation ribozyme variant] | 3.89 | 23.2 | 6.28 | 5.02 | 3.72 | 5.32
44 | AUUACCCUAGUCAUCGAGUGU [Fam2.1 aminoacylation ribozyme variant] | 1.95 | 6.11 | 2.55 | 2.47 | 1.95 | 2.62
45 | ACACACUUCAAGCACUCGGUC [Fam1B.1 aminoacylation ribozyme variant] | 1.3 | 1.49 | 1.62 | 1.42 | 1.44 | 1.77
46 | AUUCACCUAGGUCGUCGCGUG [Fam2.2 aminoacylation ribozyme variant] | 3.84 | 39 | 7.92 | 5.72 | 3.52 | 5.27
47 | CUACUUCAAACAAUCCUUCUG [Fam1A.1 aminoacylation ribozyme variant] | 0.665 | 1.04 | 0.469 | 0.577 | 0.603 | 0.528
48 | CUACUUCAAAAAAUCGGUCAG [Fam1A.1 aminoacylation ribozyme variant] | 0.613 | 3.51 | 0.653 | 0.722 | 0.845 | 1.82
49 | AAGUUUGCUAAUAGCCGCACG [Fam3.1 aminoacylation ribozyme variant] | 1.21 | 1.41 | 1.32 | 1.08 | 1.31 | 2.52
50 | CCACUUCAAACAAUCGGUCUA [Fam1A.1 aminoacylation ribozyme variant] | 0.99 | 28.5 | 1.5 | 0.991 | 1.19 | 17.4
51 | AUUCACCUAGAUCAUUGGGUG [Fam2.2 aminoacylation ribozyme variant] | 1.91 | 18 | 3.94 | 3.71 | 2.15 | 3.54
